Measured values reported in patent US20260184794A1, “ANTIBODIES AGAINST INTEGRIN ALPHA 11 BETA 1 AND USES THEREOF” (Momenta Pharmaceuticals, Inc., priority 2022, published 2026).
Where two headings read alike, the source gives them in different places.

How the values were obtained:
[1] = test system: Precision cut kidney slices (PCKS); experiment: Human fibrotic precision cut kidney slices (PCKS) treated with TGF-β1 and PDGFββ, secreted mediators; format: cell-based; conditions: increasing antibody doses, dose dependent; for inhibition of secreted Col1a1: FIG. 2; for inhibition of secreted IL-11: FIG. 3
Procedure: Precision cut kidney slices (PCKS) were treated with TGF-β1 and PDGFββ in the presence or absence of Alk5i and increasing doses of anti-α11β1 antibodies. The antibodies provided an inhibition of secreted pro-fibrotic and pro-inflammatory mediators Col1a1 (1994-01-C7 FIG. 2A, 79E3E3 FIG. 2B, and 16E10 FIG. 2C) and IL-11 (1994-01-C7 FIG. 3A, 79E3E3 FIG. 3B, and 16E10 FIG. 3C) in a dose dependent manner.

CHO-hu α11 [2] = target: T1, CHO-hu α11 (Homo sapiens, UniProt Q9UKX5); experiment: Cell adhesion inhibition on type I collagen (xCelligence); format: cell-based
T1 construct: expressed in transfected cells; host or cells: CHO-K1
Procedure: 0.6×10^6 cells/mL were incubated with each antibody at a range of concentrations for 20 minutes at 37° C. E-Plate VIEW 96 PET plate coated with 100 ng/ml type I collagen or PBS overnight at room temperature was blocked in 3% BSA for 1 hour at room temperature. After washing the plate with PBS, cell and antibody mixture was added to the wells and the plate was places into an xCelligence machine. Cell adhesion was recorded over 6 hours. The time point of maximum cell adhesion was used for comparison relative to control.

[3] = test system: CHO cell lines expressing α11; experiment: Collagen gel contraction assay; format: cell-based
Procedure: 24-well plates were blocked with 2% BSA in PBS overnight at 37° C. The following day, the plates were washed 3 times with PBS before being used in the assay. Human CHO cell lines expressing all were harvested and resuspended at 1.25×10^6 in ExpiCHO Expression Medium (Gibco™ Cat #A2910002). The collagen gel solution was prepared by diluting 3 mg/mL stock collagen type I (Gibco™ Collagen I Rat Protein, Tail Cat #A1048301) to I mg/mL in the media containing the CHO cells. Sodium hydroxide was added to the solution to neutralize the pH and 400 μL of the collagen solution was added to each well of the 24-well plates. For the wells where the antibodies were included in the collagen gel solution, CHO cells were prepared at 2.5×10^6 and the antibodies were prepared at 2× final concentration in ExpiCHO media. The cells and antibodies were then combined 1:1 before the addition of the stock collagen type I. The gels were allowed to polymerize for 60 minutes at 37° C. Antibodies were added to the ExpiCHO media, which was then layered on top of the polymerized gel ([…]). The gels were incubated for 6 days at 37° C. before gel contraction was quantified. Images of each well were analyzed using Image J and gel contraction was determined as a percentage of the initial gel area.

mouse α11β1 = mouse α11β1 (Mus musculus, UniProt P61622); experiment: Cross-reactivity with mouse α11β1 (SPR); format: binding; conditions: for Cross reacts with mouse α11β1: yes/no
cell-mu all = target: T2, cell-mu all (Mus musculus, UniProt P61622); experiment: Binding to cells expressing mouse α11
T2 construct: expressed in transfected cells

Pulmonary Myofibroblast = experiment: FACS antibody binding to pulmonary myofibroblasts (HPF/MF); parameters: species or system human; conditions: Table 11, 1994-01-C7 variants, FIG. 4B
Procedure: Human Pulmonary Fibroblasts (ScienCell) were cultured in complete Fibroblast Growth Medium (ScienCell) until 80% confluent in T-150 flasks. Cells were washed and harvested using Accutase. Cells were seeded into T-150 flasks at 7,500 cells/cm^2 in complete FGF and cultured for 72 hours. Cells were then washed and starved in serum reduced medium for 24 hours. After starvation, cells were treated with TGFβ1 (R&D Systems) for 72 hours. Cells were harvested using Accutase and seeded in 96-well conical bottom plates. Cells were blocked with Heat Inactived Fetal Bovine Serum (Gibco) for 30 minutes at 4° C. Cells were then incubated with anti-al I antibodies at the doses described in each figure for 30 minutes at 4° C. A human anti-al I antibody (Creative BioLabs) was included as a positive control as well as the appropriate IgG isotype negative controls. Cells were washed twice and incubated with PE conjugated secondary antibodies specific to the IgG class of the anti-α11 antibodies being tested for 30 minutes at 4° C. Cells were washed twice and fixed in 1% PF A for 30 minutes. Cells were acquired on a FACS Verse […]. Data were analyzed by gating on single cells and determining the geometric Mean Fluorescence Intensity (gMFI) in the PE channel for each sample.

CHO-hu α11 [4] = target: T1, CHO-hu α11; experiment: FACS antibody binding to CHO-K1 cells expressing human α11
Procedure: 200,000 cells (wild-type CHO-K1 cells or CHO-K1 cells expressing human α11) were incubated with each antibody at desired concentrations in FACS buffer for 30 min at 4° C. Then, the cells were washed with FACS buffer and incubated with secondary antibody at 1:100 dilution for 30 minutes at 4° C. Cells were then washed and fixed with 1% PF A in PBS for 20 minutes at room temperature; washed again and read on a cytometer in FACS buffer.

T1 sequence (Q9UKX5 23-1188): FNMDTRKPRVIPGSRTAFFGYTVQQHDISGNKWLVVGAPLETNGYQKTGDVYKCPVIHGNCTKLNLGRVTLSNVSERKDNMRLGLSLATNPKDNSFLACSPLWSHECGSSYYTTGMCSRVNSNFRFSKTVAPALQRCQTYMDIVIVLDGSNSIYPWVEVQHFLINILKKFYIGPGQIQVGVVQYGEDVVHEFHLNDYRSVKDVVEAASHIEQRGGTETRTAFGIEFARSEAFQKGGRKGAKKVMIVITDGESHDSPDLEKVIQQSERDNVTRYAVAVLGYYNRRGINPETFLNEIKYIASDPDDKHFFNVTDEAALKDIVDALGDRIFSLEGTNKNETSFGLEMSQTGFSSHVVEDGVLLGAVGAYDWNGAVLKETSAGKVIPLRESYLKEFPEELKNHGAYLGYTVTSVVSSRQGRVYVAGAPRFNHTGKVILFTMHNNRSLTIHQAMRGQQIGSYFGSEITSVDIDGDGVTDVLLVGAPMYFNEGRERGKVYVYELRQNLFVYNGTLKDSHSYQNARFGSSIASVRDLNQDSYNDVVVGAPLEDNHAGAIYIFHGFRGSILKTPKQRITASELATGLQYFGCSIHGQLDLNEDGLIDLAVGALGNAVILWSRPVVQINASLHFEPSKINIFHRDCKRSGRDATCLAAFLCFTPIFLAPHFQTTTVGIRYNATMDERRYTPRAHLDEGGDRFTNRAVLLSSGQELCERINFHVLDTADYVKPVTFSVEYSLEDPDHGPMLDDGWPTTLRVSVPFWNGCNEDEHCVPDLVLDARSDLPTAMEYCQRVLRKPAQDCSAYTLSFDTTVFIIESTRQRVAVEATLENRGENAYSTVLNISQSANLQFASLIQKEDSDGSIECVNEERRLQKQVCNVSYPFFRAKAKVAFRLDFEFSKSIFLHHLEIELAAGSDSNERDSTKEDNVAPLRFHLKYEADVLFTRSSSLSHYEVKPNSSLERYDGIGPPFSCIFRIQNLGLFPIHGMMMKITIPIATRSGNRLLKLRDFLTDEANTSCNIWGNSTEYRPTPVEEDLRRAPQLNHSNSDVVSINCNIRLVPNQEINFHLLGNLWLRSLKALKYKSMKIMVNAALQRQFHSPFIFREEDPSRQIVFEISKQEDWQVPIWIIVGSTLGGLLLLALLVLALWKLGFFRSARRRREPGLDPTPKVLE
T1 sequence (P05556 21-798 partner): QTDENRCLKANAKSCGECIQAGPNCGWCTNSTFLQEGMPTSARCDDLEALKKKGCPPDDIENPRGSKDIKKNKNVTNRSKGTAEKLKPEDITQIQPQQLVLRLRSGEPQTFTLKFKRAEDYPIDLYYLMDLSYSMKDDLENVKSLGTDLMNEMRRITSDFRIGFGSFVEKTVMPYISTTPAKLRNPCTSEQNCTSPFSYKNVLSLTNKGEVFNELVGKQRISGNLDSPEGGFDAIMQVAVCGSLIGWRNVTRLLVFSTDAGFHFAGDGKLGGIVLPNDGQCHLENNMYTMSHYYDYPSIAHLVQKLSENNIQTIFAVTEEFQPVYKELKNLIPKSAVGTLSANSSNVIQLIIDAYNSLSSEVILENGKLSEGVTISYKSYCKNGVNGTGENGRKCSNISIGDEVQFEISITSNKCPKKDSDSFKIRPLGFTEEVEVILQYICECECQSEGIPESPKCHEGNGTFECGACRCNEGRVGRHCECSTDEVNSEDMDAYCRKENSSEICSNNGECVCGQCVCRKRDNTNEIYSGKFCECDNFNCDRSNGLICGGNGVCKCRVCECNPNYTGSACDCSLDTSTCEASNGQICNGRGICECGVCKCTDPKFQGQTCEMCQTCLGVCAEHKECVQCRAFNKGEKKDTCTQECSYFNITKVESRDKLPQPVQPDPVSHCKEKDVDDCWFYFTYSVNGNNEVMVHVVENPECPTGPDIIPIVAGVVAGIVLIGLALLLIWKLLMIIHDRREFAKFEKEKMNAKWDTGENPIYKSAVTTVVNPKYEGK
Chain of mouse α11β1 (P61622 23-1141 limits assumed): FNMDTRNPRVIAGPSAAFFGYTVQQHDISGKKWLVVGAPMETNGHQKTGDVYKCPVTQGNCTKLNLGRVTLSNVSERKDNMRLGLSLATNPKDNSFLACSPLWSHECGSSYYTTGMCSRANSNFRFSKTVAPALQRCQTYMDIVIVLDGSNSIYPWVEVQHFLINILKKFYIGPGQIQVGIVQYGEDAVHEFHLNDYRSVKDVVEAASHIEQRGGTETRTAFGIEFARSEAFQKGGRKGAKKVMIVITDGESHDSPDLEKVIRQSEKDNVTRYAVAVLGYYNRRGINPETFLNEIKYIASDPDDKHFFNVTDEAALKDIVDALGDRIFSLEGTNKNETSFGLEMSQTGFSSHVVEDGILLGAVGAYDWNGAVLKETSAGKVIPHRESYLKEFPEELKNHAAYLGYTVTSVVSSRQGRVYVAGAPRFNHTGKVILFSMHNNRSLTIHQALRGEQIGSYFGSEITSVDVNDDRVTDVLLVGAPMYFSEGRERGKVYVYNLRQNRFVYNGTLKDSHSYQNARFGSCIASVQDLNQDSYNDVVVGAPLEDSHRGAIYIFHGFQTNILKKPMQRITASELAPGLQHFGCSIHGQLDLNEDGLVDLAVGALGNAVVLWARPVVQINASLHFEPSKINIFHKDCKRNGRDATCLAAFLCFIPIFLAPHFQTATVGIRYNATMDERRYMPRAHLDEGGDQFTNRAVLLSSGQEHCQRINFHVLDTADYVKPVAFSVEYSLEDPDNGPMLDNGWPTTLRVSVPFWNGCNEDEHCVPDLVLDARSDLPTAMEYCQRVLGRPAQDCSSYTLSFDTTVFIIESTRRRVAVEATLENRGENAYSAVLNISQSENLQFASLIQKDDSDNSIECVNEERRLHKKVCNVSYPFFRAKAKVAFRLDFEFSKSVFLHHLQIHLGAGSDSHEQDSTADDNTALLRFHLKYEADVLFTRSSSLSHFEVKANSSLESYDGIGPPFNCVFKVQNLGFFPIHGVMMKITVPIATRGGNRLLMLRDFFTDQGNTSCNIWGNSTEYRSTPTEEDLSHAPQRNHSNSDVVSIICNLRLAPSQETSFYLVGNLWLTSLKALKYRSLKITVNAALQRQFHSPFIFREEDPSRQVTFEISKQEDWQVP
Chain of mouse α11β1 (P09055 21-728 partner limits assumed): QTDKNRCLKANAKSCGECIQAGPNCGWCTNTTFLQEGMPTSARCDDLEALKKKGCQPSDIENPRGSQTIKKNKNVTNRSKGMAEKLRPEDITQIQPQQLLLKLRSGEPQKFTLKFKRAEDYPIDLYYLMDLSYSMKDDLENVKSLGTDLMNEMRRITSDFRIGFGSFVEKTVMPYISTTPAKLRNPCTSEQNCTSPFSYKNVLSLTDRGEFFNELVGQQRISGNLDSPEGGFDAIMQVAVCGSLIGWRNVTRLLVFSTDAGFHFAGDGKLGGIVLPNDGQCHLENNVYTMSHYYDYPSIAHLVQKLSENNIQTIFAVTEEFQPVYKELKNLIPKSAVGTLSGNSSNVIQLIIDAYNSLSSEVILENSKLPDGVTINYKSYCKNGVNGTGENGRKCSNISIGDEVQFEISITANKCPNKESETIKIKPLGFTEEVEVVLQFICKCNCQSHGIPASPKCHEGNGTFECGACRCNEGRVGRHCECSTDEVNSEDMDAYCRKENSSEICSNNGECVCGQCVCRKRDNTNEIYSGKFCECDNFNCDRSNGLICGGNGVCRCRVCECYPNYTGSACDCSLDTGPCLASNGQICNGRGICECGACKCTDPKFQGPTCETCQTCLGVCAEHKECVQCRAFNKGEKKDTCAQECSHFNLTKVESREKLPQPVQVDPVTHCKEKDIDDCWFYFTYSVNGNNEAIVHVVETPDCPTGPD

Molecule	inhibition of secreted Col1a1 [1]	inhibition of secreted IL-11 [1]	IC50 (CHO-hu α11 [2]; Table 12, 16E10 variants, FIG. 5B, read-out: CHO-α11 Adhesion Inhibition IC50)	Inhibits CHO-α11 mediated collagen gel contraction [3]	Cross reacts with mouse α11β1 (mouse α11β1)	IC50 (CHO-hu α11 [2]; Table 11, 1994-01-C7 variants, FIG. 4C, read-out: Inhibition of Cell Adhesion IC50)	binds cell-mu all (cell-mu all)	EC50 (Pulmonary Myofibroblast)	EC50 (CHO-hu α11 [4]; Table 11, 1994-01-C7 variants, FIG. 4A)	Kd (mouse α11β1; mouse α11β1, method not given, read-out: Cross reacts with mouse α11β1 (affinity))	EC50 (CHO-hu α11 [4]; Table 13, 79E3E3 variants)
16E10: anti-α11β1 monoclonal antibody from B cell sorting; VH SEQ ID NO: 57, VL SEQ ID NO: 62 (antibody, V domains shown) VH: QSLEESGGDLVKPGASLTLTCRVSGFSFSSSYYMCWVRQAPGKGLEWIACIGTTRGSTYYATWAKGRFTISKISSTTVTLQMTSLTDADTATYFCARDATGYRINTIGLYFNLWGPGTLVTVSS VL: ELTQTPSSVEAAVGGTPTIKCQASQTIYSYLSWYQQKPGQPPKLLIYEASKLASGVPSRFSGSGSGTDYTLTISDLECADAATYYCQSYHGTASTEYNTFGGGTEVVVK	inhibition	inhibition	0.4 nM	Yes	No						
1994-01-C7 (#9): anti-α11β1 monoclonal antibody from human phage display; VH SEQ ID NO: 32, VL SEQ ID NO: 37 (antibody, V domains shown) VH: QVQLVQSGAEVKKPGASVKVSCKASGYTFTSYGISWVRQAPGQGLEWMGWISAYNGNTNYAQKLQGRVTMTTDTSTSTAYMELRSLRSDDTAAYYCARVTGITGTTIDPWGQGTMVTVSS VL: DIQMTQSPSSLSASVGDRVTITCRASQSISSYLNWYQQKPGKAPKLLIYDASSLESGVPSRFSGSGSGTEFTLTISSLQPDDFAVYYCQQYNNWPQTFGQGTKVEIK	inhibition	inhibition		Yes	No by SPR	3.4 nM	binds	3.6 nM	3 nM		
79E3E3: anti-α11β1 monoclonal antibody from rat hybridoma; VH SEQ ID NO: 8, VL SEQ ID NO: 20 (antibody, V domains shown) VH: QIQLVQSGPEVKKPGESVKISCKASGYTFTDYAMNWVKQAPGNGLKWMGWINTQTGKPTYADDFKQRFVFSLETSARTTYLQINNLNIEDTATYFCTRLGTGNTKGFAYWGQGTLVTVSS VL: DILINQSPASLTVSAGERVTMSCKSSQSLLYSENNQDYLAWYQQKPGQFPKLLIYGASNRHTGVPDRFTGSGSGTDFTLTISSVQAEDLADYYCEQTYRYPFTFGSGTKLEIK	inhibition	inhibition		Yes						0.21 nM	2.5 nM
